Data on 1 substance can be found in article PMC4209899.

The subject of the data set is Ifit1. The experiment in a line: filter binding. As to conditions: 5' cap 0 (N-7 methylguanosine).

The substance G3 VEEV TRD 5'-UTR RNA, cap 0 showed a Kd of 91 nM.
